Laboratory results: IntAct's records for PubMed 15385968

Target: xrcc4_human XRCC4 (UniProt Q13426)
Sequence (Q13426 whole entry): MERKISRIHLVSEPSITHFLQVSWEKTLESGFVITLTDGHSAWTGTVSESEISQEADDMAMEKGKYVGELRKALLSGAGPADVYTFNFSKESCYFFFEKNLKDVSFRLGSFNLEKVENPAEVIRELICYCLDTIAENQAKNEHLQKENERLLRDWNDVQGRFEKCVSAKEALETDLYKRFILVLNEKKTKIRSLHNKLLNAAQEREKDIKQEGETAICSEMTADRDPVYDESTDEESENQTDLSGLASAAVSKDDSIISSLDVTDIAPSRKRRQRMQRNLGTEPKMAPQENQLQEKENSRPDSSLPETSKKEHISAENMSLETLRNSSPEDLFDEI

**Q.** For “Bifunctional polynucleotide phosphatase/kinase (Homo sapiens), Q96T60 R35A”, which “effect of a mutation on the interaction” value is on record?
**A.** disrupting interaction
